Assay results: the supplement of paper PMC12764529
± gives the half width of the 95% confidence interval.

Assay: folding stability dG unfold from chymotrypsin proteolysis; higher = more stable
Summary of the method: (§1)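 K50 was inferred by Bayesian fitting of sequencing counts obtained after protease digestion of designed mini-proteins. Unfolding free energy was derived by comparison with a sequence-predicted unfolded-state K50 and a shared folded-state K50, for each protease or both combined. The mini-proteins were under 80 residues, had no cysteine, were carried in a PA-tagged cDNA display construct, and were kept only if AlphaFold2 dimer inter-PAE exceeded 15.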

Sequence	folding stability dG unfold
SAGGSAGGMMYVVKITNEDGETLTIEAESEEEALEAARALAEETGREITRIEVRRLSKEEEEEESAGGSAGG [r6_162_TrROS_Hall]	2.787 ± 0.021 kcal/mol
SAGGSAGGSAGGVKEFDALAGGVPVKVKVYPDPDGNPRVEVIFPDGSKVTLSADEPLNLSAGGSAGGSAGGS [r10_989_TrMRF]	1.58 ± 0.08 kcal/mol
SAGGSPMTITMWFPVDSVEQAKDLINPNFPDYDVKVDNIKPENGWVRVKYTWPNGKPQEREIPIKKSAGGSA [r2_201_TrROS]	0.324 ± 0.38 kcal/mol
SAGPTVTVELEIRLPPELRGLSPEELAELLARELEEAGYTVEVVEVEEEDGYVTVRVRVTVPLPPPPPESAG [r5_80_TrROS_Hall]	3.29 ± 0.13 kcal/mol
SAGGSTTITLPDGRTATVEPDPNGVERYTVPGHPGVYIEKDPSTNKLTVTTVDPSSGSPVTSVIEESAGGSA [r2_477_JUSTAS]	-0.572 ± 0.44 kcal/mol
LKITLPDGAEITEITSVSVLPNGTIKITVKVRNPATGETTTVTLTITLKPAPPPEVTIVRDAETGELKLVKS [r1_411_TrROS_Hall]	2.14 ± 0.047 kcal/mol
SAGGSAGGSAGPPKPIWFRVKEVEVNPDNGTLEIKFENGQTITIPPENIENLPPGDWIRISAGGSAGGSAGG [r11_124_TrROS]	1.53 ± 0.061 kcal/mol
STMTLKELKERFPGFPPEMIEEIAERAENDPPGEEVEIYIRFPNGYPIYITVTKPDTVTIQFIPPGEPVYSA [r9_1024_TrROS]	1.01 ± 0.22 kcal/mol
SAMDFKAEKVEILKVEKLKDGTVKITVKVEVGKYVLNAEIPYGKDGKIEKIEAEIDLENNFMTYKVTVGSAG [r14_189_TrMRF]	2.24 ± 0.13 kcal/mol
SAGGSAGGSMSLKGVKITEVTNPGGKVTITYTGDGVPQTITIPPAERALIEKLRESGDISFSPSAGGSAGGS [r12_604_JUSTAS]	0.579 ± 0.17 kcal/mol
SAGGSAGGSGWIKIEFWIPIPIPVMKFDPGDGNWEMEPVTIMIRVEIEIPIPPSPEDLEKNGLSAGGSAGGS [r20_172_TrROS]	2.82 ± 0.069 kcal/mol
SAGGLVIPVTFMFQDWEEAEEFANEIARELANLYPGRPVKIDVEVEPIRNPNNGKRYYMVEATIEIDPSAGG [r13_545_TrROS]	2.77 ± 0.033 kcal/mol
SAGGMLIVRITVDLTFPVIHPDNRPSLVSVPLPITLPFSTPEEARAFAEALSKLFDAPVSLEVLPPDGSAGG [r13_320_TrMRF]	4.4 ± 0.094 kcal/mol
SALPALLEAAEAGESGTFIPIVADPEAAAVLRAVLERLGFTLVSEEPVPAGARPVFVGVYYFDPVSGRNRSA [r9_498_TrMRF]	2.38 ± 0.17 kcal/mol
SAGGSAGGSAGSETYYIKIGDKLYTVTVEPDSITVKYPETSEEKTFSSSLPGISLEEILSSAGGSAGGSAGG [r11_648_JUSTAS]	1.68 ± 0.054 kcal/mol
SAGGKKVIEIEITVKPGETITITVPPGARIEIVDLDTGEVREIEIEPGETITLTLPPGSTLLIRIYEPSAGG [r19_78_TrROS_Hall]	4.04 ± 0.11 kcal/mol
SAGGSAGGSAGAPTGFIRVRVEFVTPDGQPAEADFTVPASLVDAVFRAARETGARVSLEGSAGGSAGGSAGG [r11_603_TrMRF]	1.65 ± 0.074 kcal/mol
SKLKPGDIVKLENGEYYRIKKIEISYDKETKEFTIKAEIEPAPPVETETETKTNADGSTETVTKTKVELPSA [r9_914_TrROS_Hall]	2.366 ± 0.021 kcal/mol
SAGGSAGGSAGGPPILLPKFDGSVKEVLTLPTEDRLLLVAYNPETGKLFVFEIKDPDEFSAGGSAGGSAGGS [r10_772_TrMRF]	1.65 ± 0.063 kcal/mol
SETVTVTVTVTVTLYRRRPDGKWVPIAELTVTVTRTVEKEDEEEARRAVREEVEDELRKLAEELGVEIEPSA [r9_356_TrROS_Hall]	5.79 ± 0.12 kcal/mol
SAGGSAEKPEIGAEIVTYKDKDKPLYIVAVPFFDENGNLVGVLVKEFDNPEEAKEFLEALGFGKIESAGGSA [r15_127_TrMRF]	1.68 ± 0.038 kcal/mol

Sequence	folding stability dG unfold
SPPITIEIEYERNPDNGMFPLKVKAWNPDGEPIGEREIPFKGSPEEMRERAMKEAKELADKNGWPIEIEWSA [r9_31_TrROS]	0.637 ± 0.18 kcal/mol
SMSLTIPEELIEAIKKALEELEPGEEVTITYNLPDGSVITVKVVGKGEVTITVYSSPDSQTQTYTFEIKESA [r9_132_JUSTAS]	3.313 ± 0.023 kcal/mol
SGYVVRIYRPNEKGEPVKIVLPDEEAEELYKELVDEEMSVEEFAERLKKLFPDAKVEVRKAEDIPPEELLSA [r9_1085_TrMRF]	1.85 ± 0.023 kcal/mol
SAGGKITITVEYNKETNTVRIKITTEDGKEKELEINLENLTEEELKKLAEEIAKKLNPEKIKKVEIYPSAGG [r13_267_TrROS_Hall]	2.69 ± 0.12 kcal/mol
SAGGSAGGSMKPGEKVKVEIVSYDEKTKELTIKITYGPKKTKTITIKPKTKEEALEQLKKLLKSAGGSAGGS [r20_167_TrROS_Hall]	3.14 ± 0.051 kcal/mol
GVVRPLGDPNGQLSIVATDPEGNLLVKALVPNDEAQVEAAKKELLAAMPGLDEKEVVFSIYDPLTGKTKILS [r1_55_JUSTAS]	1.61 ± 0.025 kcal/mol
SAGGSAGGSAGMVLVFDKKTGELYLYDKNGKLVAKFKVEGAEEVVVLVFDPDTNELKLVPSAGGSAGGSAGG [r17_413_TrROS_Hall]	3.68 ± 0.037 kcal/mol
SAGGSAGGSAGMRLVTFTVPGSAISVSTPGGATVVSVEKLPGDLVRVTVEIPEGAPPGLQSAGGSAGGSAGG [r17_48_JUSTAS]	1.76 ± 0.029 kcal/mol
SAGGSAGGPKTKTVDFIVPALDENGNPLPDNAKFTFKLPDKTINIDFKRDKDSDYVLVKATITNSAGGSAGG [r6_657_TrMRF]	0.901 ± 0.14 kcal/mol
SAGGSAGGSAGGPNLRIKLKPYPDGKWKIDEIEVPDNHVTIPMRFGNGGEERKTMPPEQISAGGSAGGSAGG [r7_829_TrROS]	-0.484 ± 0.48 kcal/mol
SAGGSAMKVIVTVKILDKGEVKTLTEEEAKKYLEEHPEEVKEVEVETTVESDATESFTDIDLNGLKSAGGSA [r15_99_JUSTAS]	0.462 ± 0.047 kcal/mol
SAKKKVVVEIEIPKEDMSKEEVKEALREAAKELGLELPEEEIEKLVEEARKKGLSIEEVLRKLKEEGLLSAG [r14_364_TrROS_Hall]	1.47 ± 0.054 kcal/mol
SMEEFAKSLPDVKIETKPLSPDEIEITVYIPSDPEKAKKVEEIVKKLAEEIEKKTGIKVKVTFKPVPPEESA [r9_1099_JUSTAS]	3.32 ± 0.21 kcal/mol
SPKEPQKVRIRIRNPENGKPIWEFDIWFPPDGGVKVKIEHPNEKHEYPMPADEALDFLENHPFKIEEIEVSA [r9_470_TrROS]	0.301 ± 0.2 kcal/mol
SAGSFKVTLELVLPNGEKLTVENPEDVLAAIKALPSNVTVRVSTPGESETISITGSDGSVFALKIERFKSAG [r5_506_TrMRF]	1.97 ± 0.089 kcal/mol
SPEAVAEALRKLGFDLDIERIDVEPLPDGTYRVTVTRGDKPVFTVTVTAPPPPPPVFVVRDADGTERLVRSA [r9_442_TrMRF]	2.4 ± 0.03 kcal/mol
SAGGSAGGSSVKAKLLSYSRDPTSDLVSVELLIEKSSETIPITLTVPPSEVQPGATITIEIRPSAGGSAGGS [r12_76_JUSTAS]	0.609 ± 0.11 kcal/mol
SAGEPLVPLSEYELDVPGGQKVKIEIYALPDGTVVVRITDSEGNESEITIPRAELEKLSPEEIVARLSSAGG [r19_47_JUSTAS]	3.57 ± 0.093 kcal/mol
SAGGSAGGMTITTTENPNSNLTTYDVTIGNTKVTVTVNPNNPGVIKTEGDNDVPVEVVINAVLSSAGGSAGG [r6_197_JUSTAS]	0.456 ± 0.043 kcal/mol
SAGGSAGILEKTIKLAEELGLPVVEAKVVKKKNKVYVFFKSKKSKKYVIEIDGDKITIKPYSVVKKSAGGSA [r15_901_TrMRF]	2.99 ± 0.05 kcal/mol
SAGRIHFMDSPSQARDQAEENNYPIVIGMDKGSGWMQIAIYKGGKPKPIRQIPPNNPEINRFIKKLGFTSAG [r5_458_TrROS]	-0.14 ± 0.16 kcal/mol

Assay: folding stability dG unfold from trypsin proteolysis; higher = more stable
Summary of the method: as §1

Sequence	folding stability dG unfold
SAGGSAGGMMYVVKITNEDGETLTIEAESEEEALEAARALAEETGREITRIEVRRLSKEEEEEESAGGSAGG [r6_162_TrROS_Hall]	2.28 ± 0.06 kcal/mol
SAGGSAGGSAGGVKEFDALAGGVPVKVKVYPDPDGNPRVEVIFPDGSKVTLSADEPLNLSAGGSAGGSAGGS [r10_989_TrMRF]	2.26 ± 0.067 kcal/mol
SAGGSPMTITMWFPVDSVEQAKDLINPNFPDYDVKVDNIKPENGWVRVKYTWPNGKPQEREIPIKKSAGGSA [r2_201_TrROS]	-0.226 ± 0.33 kcal/mol
SAGPTVTVELEIRLPPELRGLSPEELAELLARELEEAGYTVEVVEVEEEDGYVTVRVRVTVPLPPPPPESAG [r5_80_TrROS_Hall]	3.59 ± 0.11 kcal/mol
SAGGSTTITLPDGRTATVEPDPNGVERYTVPGHPGVYIEKDPSTNKLTVTTVDPSSGSPVTSVIEESAGGSA [r2_477_JUSTAS]	0.243 ± 0.043 kcal/mol
LKITLPDGAEITEITSVSVLPNGTIKITVKVRNPATGETTTVTLTITLKPAPPPEVTIVRDAETGELKLVKS [r1_411_TrROS_Hall]	2.63 ± 0.1 kcal/mol
SAGGSAGGSAGPPKPIWFRVKEVEVNPDNGTLEIKFENGQTITIPPENIENLPPGDWIRISAGGSAGGSAGG [r11_124_TrROS]	0.838 ± 0.029 kcal/mol
STMTLKELKERFPGFPPEMIEEIAERAENDPPGEEVEIYIRFPNGYPIYITVTKPDTVTIQFIPPGEPVYSA [r9_1024_TrROS]	1.23 ± 0.089 kcal/mol
SAMDFKAEKVEILKVEKLKDGTVKITVKVEVGKYVLNAEIPYGKDGKIEKIEAEIDLENNFMTYKVTVGSAG [r14_189_TrMRF]	1.58 ± 0.19 kcal/mol
SAGGSAGGSMSLKGVKITEVTNPGGKVTITYTGDGVPQTITIPPAERALIEKLRESGDISFSPSAGGSAGGS [r12_604_JUSTAS]	0.708 ± 0.043 kcal/mol
SAGGSAGGSGWIKIEFWIPIPIPVMKFDPGDGNWEMEPVTIMIRVEIEIPIPPSPEDLEKNGLSAGGSAGGS [r20_172_TrROS]	2.2 ± 0.15 kcal/mol
SAGGLVIPVTFMFQDWEEAEEFANEIARELANLYPGRPVKIDVEVEPIRNPNNGKRYYMVEATIEIDPSAGG [r13_545_TrROS]	2.01 ± 0.059 kcal/mol
SAGGMLIVRITVDLTFPVIHPDNRPSLVSVPLPITLPFSTPEEARAFAEALSKLFDAPVSLEVLPPDGSAGG [r13_320_TrMRF]	3.62 ± 0.13 kcal/mol
SALPALLEAAEAGESGTFIPIVADPEAAAVLRAVLERLGFTLVSEEPVPAGARPVFVGVYYFDPVSGRNRSA [r9_498_TrMRF]	1.1 ± 0.047 kcal/mol
SAGGSAGGSAGSETYYIKIGDKLYTVTVEPDSITVKYPETSEEKTFSSSLPGISLEEILSSAGGSAGGSAGG [r11_648_JUSTAS]	1.63 ± 0.041 kcal/mol
SAGGKKVIEIEITVKPGETITITVPPGARIEIVDLDTGEVREIEIEPGETITLTLPPGSTLLIRIYEPSAGG [r19_78_TrROS_Hall]	3.66 ± 0.25 kcal/mol
SAGGSAGGSAGAPTGFIRVRVEFVTPDGQPAEADFTVPASLVDAVFRAARETGARVSLEGSAGGSAGGSAGG [r11_603_TrMRF]	0.504 ± 0.1 kcal/mol
SKLKPGDIVKLENGEYYRIKKIEISYDKETKEFTIKAEIEPAPPVETETETKTNADGSTETVTKTKVELPSA [r9_914_TrROS_Hall]	0.701 ± 0.061 kcal/mol
SAGGSAGGSAGGPPILLPKFDGSVKEVLTLPTEDRLLLVAYNPETGKLFVFEIKDPDEFSAGGSAGGSAGGS [r10_772_TrMRF]	0.694 ± 0.044 kcal/mol
SETVTVTVTVTVTLYRRRPDGKWVPIAELTVTVTRTVEKEDEEEARRAVREEVEDELRKLAEELGVEIEPSA [r9_356_TrROS_Hall]	3.94 ± 0.095 kcal/mol
SAGGSAEKPEIGAEIVTYKDKDKPLYIVAVPFFDENGNLVGVLVKEFDNPEEAKEFLEALGFGKIESAGGSA [r15_127_TrMRF]	1.55 ± 0.14 kcal/mol
